Laboratory results: paper doi:10.1101/2023.02.21.529347v1

Key:
Experiment in all cases: purified protein
purified protein [1] = substrate: CC1=CC(=O)CCC1; details: co-substrate F420H2, apparent value
purified protein [2] = substrate: C=C(C)[C@@H]1CC=C(C)C(=O)C1; details: co-substrate F420H2; apparent value
purified protein [3] = substrate: CC1=CC(=O)CC1; details: co-substrate F420H2; apparent value
purified protein [4] = substrate: CC1=CCCC1=O; details: co-substrate F420H2; apparent value
purified protein [5] = substrate: CC1(C)[C@H]2CC=C(C=O)[C@@H]1C2; details: co-substrate F420H2; apparent value
purified protein [6] = substrate: CC1=CCCCC1=O; details: co-substrate F420H2; apparent value
purified protein [7] = substrate: C=C(C)[C@H]1CC=C(C)C(=O)C1; details: co-substrate F420H2; apparent value
purified protein [8] = substrate: CC1=CC(=O)CC(C)(C)C1=O; details: co-substrate F420H2; apparent value; fit with substrate inhibition

| Protein | Km (purified protein [1]; fit with substrate inhibition) [µM] | kcat (purified protein [1]; fit with substrate inhibition) [s⁻¹] | Km (purified protein [2]) [µM] | kcat (purified protein [2]) [s⁻¹] | Km (purified protein [3]) [µM] | kcat (purified protein [3]) [s⁻¹] | Km (purified protein [4]) [µM] | kcat (purified protein [4]) [s⁻¹] | Km (purified protein [5]) [µM] | kcat (purified protein [5]) [s⁻¹] | Km (purified protein [6]) [µM] | kcat (purified protein [6]) [s⁻¹] | Km (purified protein [7]) [µM] | kcat (purified protein [7]) [s⁻¹] | Km (purified protein [8]) [µM] | kcat (purified protein [8]) [s⁻¹] | Km (purified protein [1]) [µM] | kcat (purified protein [1]) [s⁻¹] |
| --- | --- | --- | --- | --- | --- | --- | --- | --- | --- | --- | --- | --- | --- | --- | --- | --- | --- | --- |
| MSMEG_2850 (Mycolicibacterium smegmatis MC2 155) (protein) MTEAIDWDQMNNQVIKEFRETGGKAGGLFEGSPLVLVHHTGAKSGKQRIAPLVPLLDGDRIYIFGSKGGADSHPDWYHNLVANPDTVVELGTETFPVKARVLTGAERDEIYAKQVAVAPQFGDYQRKTTRVIPVVELQRV | 6730 ± 6840 | 4.02 ± 3.30 | 1620 ± 180 | 0.08 ± 0.003 | 4300 ± 740 | 0.10 ± 0.008 | 7670 ± 3210 | 0.16 ± 0.04 | 580 ± 70 | 0.16 ± 0.005 | 9180 ± 2220 | 1.59 ± 0.23 | 2070 ± 390 | 0.05 ± 0.004 | 100 ± 8 | 1.35 ± 0.028 |  |  |
| MSMEG_2027 (Mycolicibacterium smegmatis MC2 155) (protein) MTDAELSPTDWVREQTERILEQGTTDGVHVLDRPIVLFTTTGAKSGKKRYVPLMRVEENGKYAMVASKGGDPKHPSWYFNVKANPTVSVQDGDKVLPDRTARELEGEEREHWWKLAVEAYPPYAEYQTKTDRLIPVFIVE |  |  | 1290 ± 320 | 0.11 ± 0.008 | 120 ± 50 | 0.01 ± 0.001 | 1000 ± 130 | 0.55 ± 0.02 | 310 ± 30 | 0.74 ± 0.017 | 2560 ± 480 | 0.62 ± 0.05 | 1300 ± 280 | 0.09 ± 0.006 | 3880 ± 680 | 0.39 ± 0.05 | 4290 ± 3460 | 1.10 ± 0.41 |
